Assay results taken from patent publication US20230111363A1.
Substitutions are numbered along the chain they refer to.

B1: anti-human MCT1 antibody Ab1 (antibody, human IgG1, kappa, V domains shown)
VH: QVQLVQSGAEVKKPGASVKVSCTVSGFSLTNYHLQWVRQAPGQGLEWMGFIRSSGNTEYNSEFKSRVTMTRDTSTSTVYMELSSLRSEDTAVYYCARNSWYHGTYYSPGYYVMDAWGQGTLVTVSS
VL: EIVLTQSPGTLSLSPGERATLSCKGSQNINNYLAWYQQKPGQAPRLLIYNRHNLQTGIPDRFSGSGSGTDFTLTISRLEPEDFAVYYCYQYSDGYTFGGGTKVEIKR
B2: anti-human MCT1 antibody Ab18 (antibody, human IgG1, kappa, V domains shown)
VH: B1 VH with F27R, Q35G, S99R
VL: B1 VL with N30E
B3: anti-human MCT1 antibody Ab10 (antibody, human IgG1, kappa, V domains shown)
VH: B1 VH with F27R, N31G, S99R
VL: B1 VL with N30E
B4: anti-human MCT1 antibody Ab14 (antibody, human IgG1, kappa, V domains shown)
VH: B1 VH with F27R, S99R, A115P
VL: B1 VL with N30E
B5: anti-human MCT1 antibody Ab13 (antibody, human IgG1, kappa, V domains shown)
VH: B1 VH with F27R, S99R, Y101R
VL: B1 VL with N30E
B6: anti-human MCT1 antibody Ab17 (antibody, human IgG1, kappa, V domains shown)
VH: B1 VH with F27R, Y32I, S99R
VL: B1 VL with N30E
B7: anti-human MCT1 antibody Ab19 (antibody, human IgG1, kappa, V domains shown)
VH: B1 VH with F27R, S53R, S99R
VL: B1 VL with N30E
B8: anti-human MCT1 antibody Ab11 (antibody, human IgG1, kappa, V domains shown)
VH: B1 VH with F27R, S99R, Y101H
VL: B1 VL with N30E
B9: anti-human MCT1 antibody Ab15 (antibody, human IgG1, kappa, V domains shown)
VH: B1 VH with F27R, S99L
VL: B1 VL with N30E
B10: anti-human MCT1 antibody Ab9 (antibody, human IgG1, kappa, V domains shown)
VH: B1 VH with F27R, L34I, S99R
VL: B1 VL with N30E
B11: anti-human MCT1 antibody Ab12 (antibody, human IgG1, kappa, V domains shown)
VH: B1 VH with F27R, Q35V, S99R
VL: B1 VL with N30E
B12: anti-human MCT1 antibody Ab7 (antibody, human IgG1, kappa, V domains shown)
VH: B1 VH with F27R, L29R, S99R
VL: B1 VL with N30E
B13: anti-human MCT1 antibody Ab16 (antibody, human IgG1, kappa, V domains shown)
VH: B1 VH with V24R, F27R, S99R
VL: B1 VL with N30E
B14: anti-human MCT1 antibody Ab8 (antibody, human IgG1, kappa, V domains shown)
VH: B1 VH with F27R, E58I, S99R
VL: B1 VL with N30E

Biological target: human serum polyclonal antibodies
Experiment: cross-interaction chromatography (CIC), column with human serum polyclonal IgG

IgG column RT [min] | IgG column peak width [min] | Binder
5.07 | 1.5 | B1
5.35 | 1.64 | B2
5.27 | 1.44 | B3
5.29 | 1.51 | B4
5.33 | 1.63 | B5
5.19 | 1.36 | B6
5.41 | 1.94 | B7
5.33 | 1.57 | B8
5.27 | 1.55 | B9
5.28 | 1.46 | B10
5.29 | 1.46 | B11
5.38 | 1.79 | B12
5.4 | 1.89 | B13
5.34 | 1.55 | B14

Biological target: human serum polyclonal antibodies
Experiment: cross-interaction chromatography (CIC), IgG column against blank column

IgG K' (column retention time ratio) | Binder
0.05 | B1
0.08 | B2
0.06 | B3
0.07 | B4
0.07 | B5
0.05 | B6
0.08 | B7
0.06 | B8
0.09 | B9
0.07 | B10
0.07 | B11
0.08 | B12
0.08 | B13
0.07 | B14
